In US20230265179A1 (TWIST BIOSCIENCE, published 2023):

T1: CD40L (UniProt P29965 1-261, limits assumed)
T1 construct: whole, on cells; also called cytokine over-expressing Expi293 cells (CD40L)
T1 sequence (looked up): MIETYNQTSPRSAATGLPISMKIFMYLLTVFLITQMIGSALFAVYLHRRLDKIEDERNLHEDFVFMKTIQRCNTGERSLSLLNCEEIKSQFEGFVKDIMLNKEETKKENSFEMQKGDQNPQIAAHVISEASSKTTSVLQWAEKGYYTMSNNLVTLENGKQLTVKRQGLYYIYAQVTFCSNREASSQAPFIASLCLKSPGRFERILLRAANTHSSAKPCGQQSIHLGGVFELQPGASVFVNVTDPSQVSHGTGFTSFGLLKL

B1: CD40L-319 (antibody, V domains shown)
VH: EVQLLESGGGLVQPGGSLRLSCAASGFTFGHYAMGWVRQAPGKGLEWVSAISGSGAGTYYADSVKGRFTISRDNSKNTLYLQMNSLRAEDTAVYYCATHDSPYYYIDVWGQGTLVTVSS
VL: DIQMTQSPSSLSASVGDRVTITCRASQSIYTYLNWYQQKPGKAPKLLIYTASALQTGVPSRFSGSGSGTDFTLTISSLQPEDFATYYCQQSYRIPLTFGGGTKVEIK
B2: CD40L-321 (antibody, V domains shown)
VH: EVQLLESGGGLVQPGGSLRLSCAASGFSFRSYAMSWVRQAPGKGLEWVSIISGSGGSTSYADSVKGRFTISRDNSKNTLYLQMNSLRAEDTAVYYCARYYFGLSSNWFNPWGQGTLVTVSS
VL: DIQMTQSPSSLSAYVGDRVTITCRASQSIGIHLNWYQQKPGKAPKLLIYGASRLQTGVPSRFSGSGSGTDFTLTISSLQPEDFATYYCQQSYSAPLTFGGGTKVEIK
B3: CD40L-437 (antibody, V domains shown)
VH: EVQLLESGGGLVQPGGSLRLSCAASGFSFSSYAMAWVRQAPGKGLEWVSSISGSGGGGNTYYADSVKGRFTISRDNSKNTLYLQMNSLRAEDTAVYYCARHHERDYYGMDVWGQGTLVTVSS
VL: DIQMTQSPSSLSASVGDRVTITCRASQTISNFLNWYQQKPGKAPKLLIYAASTLQYGVPSRFSGSGSGTDFTLTISSLQPEDFATYYCQQTYSFPLTFGGGTKVEIK
B4: CD40L-340 (antibody, V domains shown)
VH: EVQLLESGGGLVQPGGSLRLSCAASGFGFSSYAMSWVRQAPGKGLEWVSAISGGGGSIYYADSVKGRFTISRDNSKNTLYLQMNSLRAEDTAVYYCATDYGDYDRLNFDLWGQGTLVTVSS
VL: DIQMTQSPSSLSASVGDRVTITCRASQSVSRFLNWYQQKPGKAPKLLIYAASTLQPGVPSRFSGSGSGTDFTLTISSLQPEDFATYYCQQSYETPLTFGQGTKVEIK
B5: CD40L-342 (antibody, V domains shown)
VH: EVQLLESGGGLVQPGGSLRLSCAASGFTFSKYAMNWVRQAPGKGLEWVSAISGSGESTYYADSVKGRFTISRDNSKNTLYLQMNSLRAEDTAVYYCARAHDYDSMLMDYWGQGTLVTVSS
VL: DIQMTQSPSSLSASVGDRVTITCRASQSISRYLNWYQQKPGKAPKLLIYAESTLQSGVPSRFSGSGSGTDFTLTISSLQPEDFATYYCQQSYTIPLTFGQGTKVEIK
B6: CD40L-339 (antibody, V domains shown)
VH: EVQLLESGGGLVQPGGSLRLSCAASGFTFSNYAMSWVRQAPGKGLEWVSAITGSGSTTYYADSVKGRFTISRDNSKNTLYLQMNSLRAEDTAVYYCARAHDYDSMLMDYWGQGTLVTVSS
VL: DIQMTQSPSSLSASVGDRVTITCRASQSIGTFLNWYQQKPGKAPKLLIYGTSNLQSGVPSRFSGSGSGTDFTLTISSLQPEDFATYYCQQGYRTPLTFGQGTKVEIK
B7: CD40L-347 (antibody, V domains shown)
VH: EVQLLESGGGLVQPGGSLRLSCAASGFTFSNYAMSWVRQAPGKGLEWVSAITGSGSTTYYADSVKGRFTISRDNSKNTLYLQMNSLRAEDTAVYYCARAHDYDSMLMDYWGQGTLVTVSS
VL: DIQMTQSPSSLSASVGDRVTITCRASQSIGTFLNWYQQKPGKAPKLLIYGTSNLQSGVPSRFSGSGSGTDFTLTISSLQPEDFATYYCQQGYRTPLTFGGGTKVEIK
B8: CD40L-350 (antibody, V domains shown)
VH: EVQLLESGGGLVQPGGSLRLSCAASGLTFGSYAMSWVRQAPGKGLEWVSAISGSVGSTYYADSVKGRFTISRDNSKNTLYLQMNSLRAEDTAVYYCARHGGYYYYYMDVWGQGTLVTVSS
VL: DIQMTQSPSSLSASVGDRVTITCRASQSISSYVSWYQQKPGKAPKLLIYDASSLSGGVPSRFSGSGSGTDFTLTISSLQPEDFATYYCQQSYRIPLTFGGGTKVEIK
B9: CD40L-349 (antibody, V domains shown)
VH: EVQLLESGGGLVQPGGSLRLSCAASGFGFSSYAMSWVRQAPGKGLEWVSAISGGGGSIYYADSVKGRFTISRDNSKNTLYLQMNSLRAEDTAVYYCATDYGDYDRLNFDLWGQGTLVTVSS
VL: DIQMTQSPSSLSASVGDRVTITCRASQTIGSYLNWYQQKPGKAPKLLIYAASTLQPGVPSRFSGSGSGTDFTLTISSLQPEDFATYYCQQSYETPLTFGGGTKVEIK
B10: CD40L-341 (antibody, V domains shown)
VH: EVQLLESGGGLVQPGGSLRLSCAASGFTFRSYAMTWVRQAPGKGLEWVSAISGSGDRTYYGDSVKGRFTISRDNSKNTLYLQMNSLRAEDTAVYYCARIARSEDFWSGYYTDFDFDYWGQGTLVTVSS
VL: DIQMTQSPSSLSASVGDRVTITCRASQSISTYLNWYQQKPGKAPKLLIYRASTLQSGVPSRFSGSGSGTDFTLTISSLQPEDFATYYCQQSYSNPPTFGQGTKVEIK
B11: CD40L-348 (antibody, V domains shown)
VH: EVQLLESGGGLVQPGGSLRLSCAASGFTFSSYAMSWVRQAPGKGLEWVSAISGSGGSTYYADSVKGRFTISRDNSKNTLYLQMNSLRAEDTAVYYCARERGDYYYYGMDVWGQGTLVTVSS
VL: DIQMTQSPSSLSASVGDRVTITCRASQTISNFLNWYQQKPGKAPKLLIYAASTLQYGVPSRFSGSGSGTDFTLTISSLQPEDFATYYCQQNYRSPLTFGGGTKVEIK
B12: CD40L-345 (antibody, V domains shown)
VH: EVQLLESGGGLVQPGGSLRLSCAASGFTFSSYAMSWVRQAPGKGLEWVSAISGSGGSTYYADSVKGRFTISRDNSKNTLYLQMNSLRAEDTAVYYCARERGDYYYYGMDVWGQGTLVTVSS
VL: DIQMTQSPSSLSASVGDRVTITCRASQTISNFLNWYQQKPGKAPKLLIYAASTLQYGVPSRFSGSGSGTDFTLTISSLQPEDFATYYCQQNYRSPLTFGQGTKVEIK
B13: CD40L-386 (antibody, V domains shown)
VH: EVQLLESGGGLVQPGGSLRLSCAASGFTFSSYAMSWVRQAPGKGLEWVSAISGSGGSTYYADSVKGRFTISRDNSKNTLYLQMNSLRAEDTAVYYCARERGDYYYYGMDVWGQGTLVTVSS
VL: DIQMTQSPSSLSASVGDRVTITCRASESITTYLNWYQQKPGKAPKLLIYTASGLQSGVPSRFSGSGSGTDFTLTISSLQPEDFATYYCQQSYTVPITFGGGTKVEIK
B14: CD40L-429 (antibody, V domains shown)
VH: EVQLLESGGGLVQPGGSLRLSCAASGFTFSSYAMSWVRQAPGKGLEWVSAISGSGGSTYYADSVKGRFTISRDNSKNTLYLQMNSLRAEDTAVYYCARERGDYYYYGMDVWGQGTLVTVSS
VL: DIQMTQSPSSLSASVGDRVTITCRASQTISYYLNWYQQKPGKAPKLLIYDATSLQSGVPSRFSGSGSGTDFTLTISSLQPEDFATYYCQQTYSLPLTFGGGTKVEIK
B15: CD40L-343 (antibody, V domains shown)
VH: EVQLLESGGGLVQPGGSLRLSCAASGFTFSKYAMNWVRQAPGKGLEWVSAISGSGESTYYADSVKGRFTISRDNSKNTLYLQMNSLRAEDTAVYYCARAHDYDSMLMDYWGQGTLVTVSS
VL: DIQMTQSPSSLSASVGDRVTITCRASQYINNYLNWYQQKPGKAPKLLIYASSTLQRGVPSRFSGSGSGTDFTLTISSLQPEDFATYYCQQSFSTPITFGQGTKVEIK
B16: CD40L-378 (antibody, V domains shown)
VH: EVQLLESGGGLVQPGGSLRLSCAASGFTFRSYAMTWVRQAPGKGLEWVSAISGSGDRTYYGDSVKGRFTISRDNSKNTLYLQMNSLRAEDTAVYYCARIARSEDFWSGYYTDFDFDYWGQGTLVTVSS
VL: DIQMTQSPSSLSASVGDRVTITCRASQSISTYLNWYQQKPGKAPKLLIYRASTLQSGVPSRFSGSGSGTDFTLTISSLQPEDFATYYCQQSYSNPPTFGGGTKVEIK
B17: CD40L-344 (antibody, V domains shown)
VH: EVQLLESGGGLVQPGGSLRLSCAASGFTFSKYAMNWVRQAPGKGLEWVSAISGSGESTYYADSVKGRFTISRDNSKNTLYLQMNSLRAEDTAVYYCARAHDYDSMLMDYWGQGTLVTVSS
VL: DIQMTQSPSSLSASVGDRVTITCRASESITTYLNWYQQKPGKAPKLLIYTASGLQSGVPSRFSGSGSGTDFTLTISSLQPEDFATYYCQQSYTVPITFGQGTKVEIK
B18: CD40L-330 (antibody, V domains shown)
VH: EVQLLESGGGLVQPGGSLRLSCAASGFTFSKYAMNWVRQAPGKGLEWVSAISGSGESTYYADSVKGRFTISRDNSKNTLYLQMNSLRAEDTAVYYCARAHDYDSMLMDYWGQGTLVTVSS
VL: DIQMTQSPSSLSASVGDRVTITCRASQTIGSYLNWYQQKPGKAPKLLIYSASTLQTGVPSRFSGSGSGTDFTLTISSLQPEDFATYYCQQSYSPPLTFGGGTKVEIK
B19: CD40L-266 (antibody, V domains shown)
VH: EVQLLESGGGLVQPGGSLRLSCAASGGYNFRDYMHWVRQAPGKGLEWVGKINYAGNTDYNDSVKGRFTISRDNSKNTLYLQMNSLRAEDTAVYYCAKNLGQGFDYWGQGTLVTVSS
VL: DIQMTQSPSSLSASVGDRVTITCRASQNIRSYLNWYQQKPGKAPKLLIYSASVLQSGVPSRFSGSGSGTDFTLTISSLQPEDFATYYCKSRAYSGNLVEFGQGTKVEIK
B20: CD40L-250 (antibody, V domains shown)
VH: EVQLLESGGGLVQPGGSLRLSCAASGFIFQWYDMGWVRQAPGKGLEWVSSIDWRGLLTYYADSVKGRFTISRDNSKNTLYLQMNSLRAEDTAVYYCAKAYYGGFDYWGQGTLVTVSS
VL: not shown
B21: CD40L-241 (antibody, V domains shown)
VH: EVQLLESGGGLVQPGGSLRLSCAASGGYNFRDYMHWVRQAPGKGLEWVSSISDHGFNTYYADSVKGRFTISRDNSKNTLYLQMNSLRAEDTAVYYCAKNLGQGFDYWGQGTLVTVSS
VL: DIQMTQSPSSLSASVGDRVTITCRTSQDISNYLNWYQQKPGKAPKLLIYAASNVESGVPSRFSGSGSGTDFTLTISSLQPEDFATYYCASRNGWNHVVFGQGTKVEIK
B22: CD40L-338 (antibody, V domains shown)
VH: EVQLLESGGGLVQPGGSLRLSCAASGFTFGSFAMNWVRQAPGKGLEWVSAITGGGGSTYYADSVKGRFTISRDNSKNTLYLQMNSLRAEDTAVYYCAHGLAWRWGFDYWGQGTLVTVSS
VL: DIQMTQSPSSLSASVGDRVTITCRASQNIDRYLNWYQQKPGKAPKLLIYAASALQSGVPSRFSGSGSGTDFTLTISSLQPEDFATYYCQQSYSILPVTFGQGTKVEIK
B23: CD40L-379 (antibody, V domains shown)
VH: EVQLLESGGGLVQPGGSLRLSCAASGFTFGSFAMNWVRQAPGKGLEWVSAITGGGGSTYYADSVKGRFTISRDNSKNTLYLQMNSLRAEDTAVYYCAHGLAWRWGFDYWGQGTLVTVSS
VL: DIQMTQSPSSLSASVGDRVTITCRASQNIDRYLNWYQQKPGKAPKLLIYAASALQSGVPSRFSGSGSGTDFTLTISSLQPEDFATYYCQQSYSILPVTFGGGTKVEIK

What follows are binders tested against T1, CD40L (assay: flow cytometry, 100 nM IgG, CD40L over-expressing Expi293 cells over parent Expi293 cells).
Experimental: All incubations and washes were in buffer containing PBS+1% BSA. MFI Ratio is defined by the mean fluorescence intensity (MFI) of the cytokine over-expressing Expi293 cell over the Expi293 parent cell. […] EC50 was calculated in GraphPad Prism.
B1 was tested, and the “100 nM FACS (MFI Ratio)” value was 4.2 MFI ratio. In the case of B2, the “100 nM FACS (MFI Ratio)” value is reported as 1.7 MFI ratio. B3 was tested, and the “100 nM FACS (MFI Ratio)” value was 4.3 MFI ratio. With B4 the “100 nM FACS (MFI Ratio)” value was 61.5 MFI ratio. With B5 the “100 nM FACS (MFI Ratio)” value was 124 MFI ratio. With B6 the “100 nM FACS (MFI Ratio)” value was 56.6 MFI ratio. In the case of B7, the “100 nM FACS (MFI Ratio)” value is reported as 11.6 MFI ratio. In the case of B8, the “100 nM FACS (MFI Ratio)” value is reported as 66.4 MFI ratio. With B9 the “100 nM FACS (MFI Ratio)” value was 5.8 MFI ratio. B10 was tested, and the “100 nM FACS (MFI Ratio)” value was 125 MFI ratio. B11 was tested, and the “100 nM FACS (MFI Ratio)” value was 6.2 MFI ratio. For B12, the “100 nM FACS (MFI Ratio)” value was 7.7 MFI ratio. For B13, the “100 nM FACS (MFI Ratio)” value was 1.6 MFI ratio. With B14 the “100 nM FACS (MFI Ratio)” value was 5 MFI ratio. For B15, the “100 nM FACS (MFI Ratio)” value was 35.8 MFI ratio. In the case of B16, the “100 nM FACS (MFI Ratio)” value is reported as 8.1 MFI ratio. For B17, the “100 nM FACS (MFI Ratio)” value was 4.9 MFI ratio. With B18 the “100 nM FACS (MFI Ratio)” value was 27.1 MFI ratio. With B19 the “100 nM FACS (MFI Ratio)” value was 1.7 MFI ratio. With B20 the “100 nM FACS (MFI Ratio)” value was 27.1 MFI ratio. B21 was tested, and the “100 nM FACS (MFI Ratio)” value was 1.7 MFI ratio. In the case of B22, the “100 nM FACS (MFI Ratio)” value is reported as 34.3 MFI ratio. With B23 the “100 nM FACS (MFI Ratio)” value was 71.2 MFI ratio.
